These results are taken from article doi:10.1101/2024.03.17.585388.

In this assay the target is NTD_GS_CTD (NP NTD and CTD joined by a 14 residue artificial linker, no tails) (SARS-CoV-2). In words: […].

For “NTD_GS_CTD (NP NTD and CTD joined by a 14 residue artificial linker, no tails) (domain or fragment)”, the stoichiometry N (in general, a count of units in the complex or per binding partner) stood at 2.
